The assay deals with T1, 58P1D12 protein expressed on the cell surface (3T3-58P1D12, MDCK/58P1D12, OVCAR-5/58P1D12, xenograft cells) (human, UniProt Q9H9P2 22-273).
T1 construct: also called cell surface 58P1D12; 58P1D12-3T3
T1 sequence: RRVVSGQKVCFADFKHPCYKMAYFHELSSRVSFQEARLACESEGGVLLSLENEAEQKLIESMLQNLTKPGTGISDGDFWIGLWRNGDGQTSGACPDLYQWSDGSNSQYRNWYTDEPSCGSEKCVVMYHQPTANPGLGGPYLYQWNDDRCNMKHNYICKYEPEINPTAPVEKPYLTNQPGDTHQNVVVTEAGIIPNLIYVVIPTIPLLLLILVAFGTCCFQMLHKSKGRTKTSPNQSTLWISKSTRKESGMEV
Kind of assay: FACS saturation binding on 3T3-58P1D12 cells, one site binding fit.

B1: 58P1D12 MAb Ha8-4c4.1 (hybridoma ATCC PTA-9404) (antibody, V domains shown)
VH: QVQLQESGPGLVKPSETLSLTCTVSGGSVSSGGYYWSWIRQPPGKGLEWIGYIYYSGGTNYNPSLKSRVTISVDTSKNQFSLKLTSVTAADTAVYYCARESGYCTNVACFPDAFDIWGQGTMVTVSS
VL: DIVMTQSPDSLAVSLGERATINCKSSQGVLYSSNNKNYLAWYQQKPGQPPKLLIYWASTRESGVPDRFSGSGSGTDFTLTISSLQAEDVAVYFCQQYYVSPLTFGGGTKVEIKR
notes: Fully human IgG1 kappa (gamma 1 kappa) from XenoMouse
B1: binding was characterised by a dissociation constant (Kd) of 3 nM.
